Data on one molecule can be found in patent publication US20190241659A1 (AstraZeneca / MedImmune, published 2019).

Assay [1] concerns the target T1, CD40-Fc protein (Sino-Biological), biotinylated (Homo sapiens (Human), UniProt P25942 21-193, biotinylated in the lab (sites not given) when used for capture).
T1 construct: Bought; also called CD40-biotin; not shown: Fc of the purchased CD40-Fc
As to the kind of experiment: Octet (BLI); G4P-PDL1 held on captured hPDL1-His, then CD40-Fc 100nM. In general terms: In BLI a coated tip is dipped into the sample, and binding shifts an interference pattern.

Assay [2] concerns the target T2, human CD40 on the cell surface (CD40 transfected HEK293 cells, Ramos human B cells, other CD40-bearing cells) (human, UniProt P25942 21-277).
T2 construct: the transfected construct is not described further
The assay is described as follows: flow cytometry, Alexa 647 conjugate on CD40 transfected 293 cells.

T2 sequence (P25942 21-277 limits assumed): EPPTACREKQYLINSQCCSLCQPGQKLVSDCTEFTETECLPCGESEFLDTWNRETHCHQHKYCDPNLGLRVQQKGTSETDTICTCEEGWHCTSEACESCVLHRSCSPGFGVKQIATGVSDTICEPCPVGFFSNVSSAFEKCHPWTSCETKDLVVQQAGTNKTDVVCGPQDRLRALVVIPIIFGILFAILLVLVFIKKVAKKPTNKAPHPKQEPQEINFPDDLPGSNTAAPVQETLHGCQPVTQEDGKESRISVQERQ
T1 sequence (P25942 21-193): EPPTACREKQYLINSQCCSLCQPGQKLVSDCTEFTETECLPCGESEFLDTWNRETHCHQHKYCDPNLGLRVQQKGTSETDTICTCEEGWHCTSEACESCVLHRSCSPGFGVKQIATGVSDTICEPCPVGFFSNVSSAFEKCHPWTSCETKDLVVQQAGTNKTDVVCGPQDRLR

B1: anti-PDL1 (MEDI4736) in human IgG4 isotype (antibody, V domains shown)
VH: EVQLVESGGGLVQPGGSLRLSCAASGFTFSRYWMSWVRQAPGKGLEWVANIKQDGSEKYYVDSVKGRFTISRDNAKNSLYLQMNSLRAEDTAVYYCAREGGWFGELAFDYWGQGTLVTVSS
VL: EIVLTQSPGTLSLSPGERATLSCRASQRVSSSYLAWYQQKPGQAPRLLIYDASSRATGIPDRFSGSGSGTDFTLTISRLEPEDFAVYYCQQYGSLPWTFGQGTKVEIKR
notes: Human IgG4 (228P) format of MEDI4736; also called MEDI4736 IgG4; anti-PD-L1 (MED4736)
Turning to B1, the binding result in assay [1] is recorded as “no binding (tested: 100 nM CD40-Fc)”; in assay [2], “no binding (tested: about 4x10^4 pM)”.
